Measured values published in IntAct's records for PubMed 15784897.

Tests used:
[1] = molecular target: fyn_human FYN (UniProt P06241)
[2] = molecular target: grb2_human GRB2 (UniProt P62993)
[3] = molecular target: lck_human LCK (UniProt P06239)
[4] = molecular target: hck_human HCK (UniProt P08631)

Measured: effect of a mutation on the interaction

Sequence of fyn_human FYN (P06241 whole entry, looked up): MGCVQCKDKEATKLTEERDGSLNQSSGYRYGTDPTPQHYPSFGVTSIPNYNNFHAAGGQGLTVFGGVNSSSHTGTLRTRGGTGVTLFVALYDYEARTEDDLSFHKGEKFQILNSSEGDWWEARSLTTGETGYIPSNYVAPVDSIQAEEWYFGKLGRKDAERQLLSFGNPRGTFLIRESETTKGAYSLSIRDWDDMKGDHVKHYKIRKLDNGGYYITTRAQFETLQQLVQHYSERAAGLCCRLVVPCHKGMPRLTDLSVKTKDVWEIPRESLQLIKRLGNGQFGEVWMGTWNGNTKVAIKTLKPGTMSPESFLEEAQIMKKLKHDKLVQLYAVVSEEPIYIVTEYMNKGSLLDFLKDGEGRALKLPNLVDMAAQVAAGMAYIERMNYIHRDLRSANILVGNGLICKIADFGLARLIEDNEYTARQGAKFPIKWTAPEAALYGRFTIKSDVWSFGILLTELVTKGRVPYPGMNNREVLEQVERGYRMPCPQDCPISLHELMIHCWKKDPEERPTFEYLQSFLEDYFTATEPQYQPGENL
Sequence of lck_human LCK (P06239 whole entry, looked up): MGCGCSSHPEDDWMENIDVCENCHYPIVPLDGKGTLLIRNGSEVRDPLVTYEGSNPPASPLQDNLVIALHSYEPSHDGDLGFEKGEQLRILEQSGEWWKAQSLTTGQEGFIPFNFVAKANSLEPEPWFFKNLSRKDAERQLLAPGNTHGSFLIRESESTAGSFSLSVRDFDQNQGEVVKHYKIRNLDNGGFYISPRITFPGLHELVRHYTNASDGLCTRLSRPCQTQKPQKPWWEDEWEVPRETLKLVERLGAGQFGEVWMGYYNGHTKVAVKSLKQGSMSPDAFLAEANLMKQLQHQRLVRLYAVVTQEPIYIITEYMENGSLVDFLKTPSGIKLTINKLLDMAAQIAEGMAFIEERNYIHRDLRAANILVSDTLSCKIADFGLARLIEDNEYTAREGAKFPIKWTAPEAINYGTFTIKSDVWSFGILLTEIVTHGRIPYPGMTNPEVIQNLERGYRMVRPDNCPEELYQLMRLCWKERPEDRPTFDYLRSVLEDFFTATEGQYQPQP
Sequence of hck_human HCK (P08631 whole entry, looked up): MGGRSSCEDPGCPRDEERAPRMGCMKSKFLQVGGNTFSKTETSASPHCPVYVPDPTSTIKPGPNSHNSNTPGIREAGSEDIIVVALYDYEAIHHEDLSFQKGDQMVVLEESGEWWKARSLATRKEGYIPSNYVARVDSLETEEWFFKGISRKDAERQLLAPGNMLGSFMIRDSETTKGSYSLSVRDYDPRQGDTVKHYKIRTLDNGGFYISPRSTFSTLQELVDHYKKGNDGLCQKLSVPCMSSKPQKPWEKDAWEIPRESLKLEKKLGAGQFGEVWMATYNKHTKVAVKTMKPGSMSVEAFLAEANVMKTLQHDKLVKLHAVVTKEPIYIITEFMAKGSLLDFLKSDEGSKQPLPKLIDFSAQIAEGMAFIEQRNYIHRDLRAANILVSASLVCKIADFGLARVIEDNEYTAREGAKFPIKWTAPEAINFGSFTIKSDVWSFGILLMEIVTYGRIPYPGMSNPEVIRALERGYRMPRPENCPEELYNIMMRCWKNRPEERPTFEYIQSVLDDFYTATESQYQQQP

Genome polyprotein (Hepatitis C virus genotype 1b (isolate Con1) (HCV)), Q9WMX2 P2322A;P2325A;P2326A
disrupting interaction: all assays above
